Experimental data as given in the DeepSol protein solubility set.

assay: soluble on expression in E. coli; label from the status in PepcDB or PDB records

Row | Sequence | soluble on expression in E. coli
1 | MKKKADFLELFAVEKPIIGVIHLKGKTDQEIQERAKKEIQIYSEHGVDAILMENYYGDYVQLEKALQYVTSLDLPIPIGVNVLNVDPLGFHLANKYHLQFLQIDSVVGHVKPRDEASLQAFFDLYRAKTTAKLIGGVRFKYQPMLSEKSVEEDLKIAQQRCDAIAVTENATGEETSLEKIKLFRKQLPEFPLIVAAGLNDKSVKEQLAICDAAIVGSNFKDTRKDTGDIYAPYVDSFMKIVKELRGELEHHHHHH | soluble
2 | MKKLPNIHPGEVLMEEFLIPMEITSYRLAKEIGIPQTRVSEITKGRRRITADTALRLSKYFGNSPKFWLGLQDDYDIEEESQLIAEELKAIKKVVV | not soluble
3 | MKKLQIAVGIIRNENNEIFITRRAADAHMANKLEFPGGKIEMGETPEQAVVRELQEEVGITPQHFSLFEKLEYEFPDRHITLWFWLVERWEGEPWGKEGQPGEWMSLVGLNADDFPPANEPVIAKLKRL | soluble
4 | MKKLSFFLIATLSLGACSTATSPTGRHQVFSGVSQQQLNQLGEQAFVEIKAKEKISGNVRQNAYVRCVVDALVTELPLQWRHVKWETVLFLNEEPNAFALPGGKVGVNTGIFRAAKNQEQLAAVLGHEIGHVVSRHHEERITWQLGTQAGLGLLGVLAGTAYGDSAATAVNQIGGLTAQAAFLLPGSRTQEREADIVGQRLMAQAGFDPIQAVYLWKNMLAIAGQRPPQWLSTHPDPTNRIRQLEQQSAVLASVYAQARDAGRVPHCSPAALEHHHHHH | not soluble
5 | MKKLTLREQQLVCLNILDYFHALCERYKISYSLGGGTLIGAIRHKGFIPWDDDIDVYMHRDEYQRFVDVWFQETHEHYNMETAEDILAQYTGEMAKIFDCRTQITDAKGRKSPMFMDIFIYDGVPNEPKIIYPLMKKHRRIKLRFSSCKKRWLRAKENTVQKAILNKLSHFLFSKMQKNLAQFQIKYPIKQCDYIGLVLSDYGGWQKSYMPKEYFNHVIYKEFEGRQFQVMNGYHEHLTQYYGDYMKLPPEEDQKPHHIQEAYILLEHHHHHH | not soluble
6 | MKKPSKCQSPGDSSISAKENDAQSNRSRDSKVAPKSEGLATGLDETEWKSRLTTPEIVLKEIRTLEGVSYYHGMVARDLVESKLTRCGDYLIRATDNRIMEFEFILSFFNKKRIHSHLTIKCDVEAGKWALGLLSVNQFSSVVDLTNFYKTNPIGAGFFLKRAISKGKYMIAHDRIKYSPKDDLLGTGNFSDVFRGKIELENQMVNVALKTTKLLDDTMDPTKNVKANKIKKEMIQEAEVMSQLRHANVTSFFGIAVDRLPILLIIEFCNGGNLQGHLIKFGDRIGTNERFLYLHDASAGLNYIHAMSITHRDIAARNCLISVNGFVKLSDFGMGLKVRRNESAKKVAEDDDGKENKEPKLPVRWMSPELVDTPDAFSKMSDMWSLGILAYEIFTNATKPFFNLDDTDVMQTVKSGKHPPLPLSMGPDLIRLLKDVLVAAPTQRTTADKFYNELHVLCTQKGALSLNGLTINQIRGISRKRVEHWEGYIPQVVICDKNGNERDWGDAPQEMLANVVWRGKK | not soluble
7 | MKKQHDTIIVLDFGSQYNQLIARRIREFGVYSELHPHTITAEEIKAMNPKGIIFSGGPNSVYGEGALHCDEKIFDLGLPIFGICYGMQLMTQQFGGTVERANHREYGKAVLKVENESKLYANLPEEQVVWMSHGDLVTGLPEGFVVDATSESCPIAGMSNEAKNLYGVQFHPEVRHSEHGNDLIKNFVFGVCGCSEGWNMENFIEVELEKIRETVGDKKVLCALSGGVDSSVVAVLIHKAIGDQLTCIFVDHGLLRKGEAEGVMKTFSEGFHMNVIKVDAKERFMNKLKGVEDPEQKRKIIGNEFIYVFDDEASKLEGMDFLAQGTLYTDIVESGTATAQTIKSHHNVGGLPEDMQFKLIEPLNTLFKDEVRVLGSELGIPDEIVWRQPFPGPGLGIRVLGEITEEKLEIVRESDAILREEIIKAGLDREIWQYFTALPGMRSVGVMGDERTYDYTVGIRAVTSIDGMTADWARIPWDVLEKISVRIVNEVKHVNRIVYDVTSKPPATIEWE | not soluble
8 | MKKRYRAINDYYRELFGEKIFKLPIDAGFDCPNRDGTVARGGCTFCTVSGSGDAIVAPEAPIREQFYKEIDFMHRKWPEVNKYLVYFQNFTNTHAKLEIIKERYEQAINEPGVIGINIGTRPDCLPDETIYYLAELSERMHVTLELGLQTTYEATSALINRAHSYDLYKKTVKRIRELAPKVEIVSHLINGLPGETHDMMVENVRRCVTDNDIQGIKLHLLHLMTNTRMQRDYHEGRLRLLSQEDYISIICDQLEIIPKHIVIHRITGDAPRHMLIGPMWSLNKW | not soluble
9 | MKKSAFIFSDGELKRKDSTVLFESEDSKNYLPIEDISDIYIFGEVTVTKKFLELATQKEILLHFYNYNEYYVGTYYPREHYNSGFMILKQAEHYLDEEKRMAIAKKFIHGSVKNMLAVLKYYNNREKDLDRQITAISDLAEKIDEMDEINKLMAIEGNIREIYYGSFDIIVDDEYFEFGKRTKQPPKNRMNSLISFGNSILYTTVLSEIYKTHLDPRIGYLHSTNHRRFTLNLDVAEIFKPIIVDRVIFTLIGKKMLGEKHFEEKAGGIVLNDKGRKQFVAQMLEKLNATLMYKPLGREVSYRRLIRLELYKLEKHLMGEQEYKPYVASW | soluble
10 | MKKSNIYIGEVIKQVIAEKQVTKAELARRLGVKPQSVDYLLTRKSIDTDTLYSLSLALDYDFAVLYSIKKEHALATDEESPFKVGNAKISLEIELRPDEMLKLNLKQKIADLLEGKGK | not soluble
11 | MKKTLTSPLVAAIAHTAAPVHAGTLEDVKARGNLLCSSTTGSPGFSMPDDAGKRHGLEVDVCRAIATAVFGDPERHKIVVLNPIQRFTALQSGEVDILFNTTTWTLSREGAGALYAGVTYYDGQGVLVRKGTIASAKELDGGAICTNQGSTTELNLVDFFRANKVSNEVITFATVQEAANAYESGRCDAWSADAGILAALRSKMKAPDDHVILADRLSKEPLGAAVRKGDDAWFSVVRWSIFALQAAEELGLTSKNIAEQAKSTTNPEVLRFVGKEGSLGKVLGLNGDWAYQIVAQVGSYAEIFDRNIGAASPLNLERGINASWKNGGLFYTPPFR | not soluble
12 | MKKVSIIIPFKGQTEAELMLPLSSIYNQIGVDLSQLDIHLVNDGGKTIDLSKFDVLADRLEIHYHEIPNGGPGVARQYGIDNSISEYIMFIDADDVLYYVGALWPFYNASNQGHQMIRASYWEQIAGNPYTYTVHGNGDRKAAYGKWYKRSYIEMLGLRFMPDLPIYEDTYFVGLACELATDTCFLEEKVYMWLANPNSITRTVENKFNYQAHIYARENRYWFEMIRKWKPECLVTDFENYLTNMYLKSQKYPPVDEKAWWEEQHKLITSVSDIFSGWTQELQKQVELEHHHHHH | not soluble
13 | MKKWAVWLCSLLLLLPLSACTNDGGQSEKPLKKVRLAEVTHSIFYAPQYVALAKGFFKEEGLDVELTTTWGGDKTMTTLLSGGADIALVGSETSIYVYSQGTDDPVINFAQLTQTDGTFLVSRKKIGHFTWEMLKGSTFLGQRKGGMPQMVGEFVLKKHGIDPHQDLKLIQNVDFANIANAFASGTGDFVQLFEPTASLFEQEGKGYIVASFGTESGRVPYTSYMAKRSYMNENKDVIEKFTRAIYKAQQWVESHSAAEIAKAIQPYFKDTDSAIIEKVVERYKSQGTYATDPILDEEEWNNLQTIMAEAGELPKRIDLNTLVDSSFAKNAMND | not soluble
14 | MKLALTLEADSVNVQALNMGRIVVDVDGVNLSELINKVSENGYSLRVVDKSDQHATSTPPPLTTLTCIRCSTAHITETDNAWLYSLSHQTNDDGETEWIHFTGSGYLLRTDAWSYPVLRLKRLGLSRTFRRLVVTLTRRYGVSLIHLDAGAECLPGFPTFDW | not soluble
15 | MKLERQKLLAKVAYLYYMEGKSQSEIANELGIYRTTISRMLAKAREEGLVRIEISDFNPEIFQLESYFKSKYHLKDIEIVSSRKDSDTSEIEKDLAHVAAAMIRKKIKENDKVGIAWGRTLSKVVEAMRPHPVSQVSFVPLAGGPSHINARYHVNTLVYEMSRRFQGSCTFINATLVQENANLAKGILTSKYFEGLMDNWEKLDVAIVGVGGKPKSNEQQWLDLLNQDDFQCLDEEAAVGEITCRFFNHSGDPVNQHLAKRTIGITLEQLQKVPNRIAVAHGNYKAAALLAVLKKGYINHLVTDFSTALNILRLDKDTFVDTIYQKS | not soluble
16 | MKLGFIGLGIMGSPMAINLARAGHQLHVTTIGPVADELLSLGAVNVETARQVTEFADIIFIMVPDTPQVEDVLFGEHGCAKTSLQGKTIVDMSSISPIETKRFAQRVNEMGADYLDAPVSGGEIGAREGTLSIMVGGEQKVFDRVKPLFDILGKNITLVGGNGDGQTCKVANQIIVALNIEAVSEALVFASKAGADPVRVRQALMGGFASSRILEVHGERMINRTFEPGFKIALHQKDLNLALQSAKALALNLPNTATCQELFNTCAANGGSQLDHSAMVQALELMANHKLS | soluble
17 | MKLGVVTRKGKRQDDIRMFSQFFEVKVYEIPEELPELIDEPAEILRLPDDFDVDMIVSFAAHPDINLELIKQAAERGIGLVIISGGAKGGAYKQLKEEGEKRGVRVVWEEICCATPKVEDERTREFFEHFGAPEVEVEVENGKVKDVRVKRSAFCGATYYVAEKIKGLSVEEAPTKAGYYTQIYPCLAPRGHEGGIHKAARAHKRAVEKAIEKSK | not soluble
18 | MKLIGITGMPGSGKSAITKLAEKYKIVVVSMGDVVRYETLKQGMPLNPENVGNTAVKLREIYGKEAIAVPCLNYVNEKYNNEDFVIIEGIRSIYEVNYIKKHAELDIIAIHSSPKTRFERLSGRNREDDSNDWNTFVERDERELNFSIGRVISLADYMVVNEGNYMDFVNDLENTFKKIINVN | not soluble
19 | MKLIITSGGTTEPIDAVRGITNHSTGQLGKLITERFLQYHHDVTLVTTKTATKPLPNKRLRIIEVETVNDLMAALKDQVPHHDILIHSMAVSDYTPVYMTDLEQVSQADNLNCFLCEHNSEPKISSASDYQVLFLKKTPKVISYVKQWNPNIKLVGFKLLVNVPQEELIKVARASLAKNHADYILANDLVDIQTGMHKALLISNNEVASADTKEAIADLLYERMTKHD | not soluble
20 | MKLKQLEGLLGDLEQFSNPKNRSVIGFDIDPESLETATLNAEELEVEIDFVQCDITKLELKGLIVDTVVMNPPFGTRKKGADMEFLSAAMKVASKAVYSLHKTSTRELRYDLPKLYKFHKRKEVDIAVDLWRFEPRQN | soluble
21 | MKLKVVYRKVSDYICYDLKEIVLPSSLPDPPHVVKRRKLTWHERFLVLKEASRLYAASWVRDIGPELRPNDYKKQGDAEPKKQAKEAENEPSVLEDLAVAARGGMETLRPALHRLYMTRASNYKDALTSFIKGYHEGLQQVMQNKAESEAPADEADKSKKTT | soluble
22 | MKLLTSPFQGLKWLAPLLADDGSLHIPPQDLIQHKGISSWEVKVIVTRIDFLADQVTGTAIHQLTIDPARPFSGTEVPINITGEGTLLVTMQITAMSEDRPYCNRQYLAADIIAVVPPGVQNKVHNITHPAAPTIQHLSVGGGYTPIRQLVVQRE | not soluble
23 | MKLRTKIKRVRDVELPKYAKTGDSGFDLVAAEDTVIWPGETKVVPTGLAFEIPPGYELQVRPRSGMTRNTKLRVVLGTVDSGYRGEVGVLVDNTEIPKATNMQAHVIEKGTRIAQGVIVPVITAHFEEVDELSDSERGSGGFGSTGVK | not soluble
24 | MKLTGKQTWVFEHPIFVNSAGTAAGPKEKDGPLGSLFDKTYDEMHCNQKSWEMAERQLMEDAVNVALQKNNLTKDDIDLLLAGDLLNQNVTANYVARHLKIPFLCMFGACSTSMETVAVASALVDGGFAKRALAATSSHNATAERQFRYPTEYGGQKPDTATSTVTGSGAVVISQTPGDIQITSATVGKVSDLGITDPFDMGSAMAPAAADTIKQHFKDLNRTADDYDLILTGDLSGVGSPIVKDILKEDGYPVGTKHDDCGLLIYTPDQQVFAGGSGCACSAVVTYSHIFKQLREGKLNRVFVVATGALLSPTMIQQKETIPTIAHGVVFERAGGASLEHHHHHH | soluble
